{"source": "patent US7737158B2", "about": "“Processes for regulating blood glucose in a mammal” (Washington University, priority 2005, dated 2010)", "molecules": {"B1": {"name": "intracellular Nampt-FLAG® from NIH3T3 cells: FLAG-tagged mouse Nampt immunoprecipitated from NIH3T3 cellular extracts (protein, UniProt Q99KQ4 1-491, looked up)", "Nicotinamide …": "MNAAAEAEFNILLATDSYKVTHYKQYPPNTSKVYSYFECREKKTENSKVRKVKYEETVFYGLQYILNKYLKGKVVTKEKIQEAKEVYREHFQDDVFNERGWNYILEKYDGHLPIEVKAVPEGSVIPRGNVLFTVENTDPECYWLTNWIETILVQSWYPITVATNSREQKKILAKYLLETSGNLDGLEYKLHDFGYRGVSSQETAGIGASAHLVNFKGTDTVAGIALIKKYYGTKDPVPGYSVPAAEHSTITAWGKDHEKDAFEHIVTQFSSVPVSVVSDSYDIYNACEKIWGEDLRHLIVSRSTEAPLIIRPDSGNPLDTVLKVLDILGKKFPVTENSKGYKLLPPYLRVIQGDGVDINTLQEIVEGMKQKKWSIENVSFGSGGALLQKLTRDLLNCSFKCSYVVTNGLGVNVFKDPVADPNKRSKKGRLSLHRTPAGNFVTLEEGKGDLEEYGHDLLHTVFKNGKVTKSYSFDEVRKNAQLNIEQDVAPH", "modifications": "FLAG tag", "notes": "FLAG-tagged mouse Nampt immunoprecipitated from NIH3T3 cellular extracts"}, "B2": {"name": "extracellular Nampt: Extracellular Nampt from HIB-1B culture supernatants (protein)", "chain": "B1 Nicotinamide …"}, "B3": {"name": "intracellular Nampt-FLAG® from differentiated HIB-1B cells: FLAG-tagged mouse Nampt immunoprecipitated from differentiated HIB-1B cellular extracts (protein, UniProt Q99KQ4 1-491, looked up)", "Nicotinamide …": "B1 Nicotinamide …", "modifications": "FLAG tag", "notes": "FLAG-tagged mouse Nampt immunoprecipitated from differentiated HIB-1B cellular extracts"}, "B4": {"name": "Nmnat: Bacterially produced, His-tagged recombinant mouse nicotinamide/nicotinic acid mononucleotide adenylyltransferase (protein, UniProt Q9EPA7 1-285, looked up)", "Nicotinamide/nicotinic acid …": "MDSSKKTEVVLLACGSFNPITNMHLRLFELAKDYMHATGKYSVIKGIISPVGDAYKKKGLIPAHHRIIMAELATKNSHWVEVDTWESLQKEWVETVKVLRYHQEKLATGSCSYPQSSPALEKPGRKRKWADQKQDSSPQKPQEPKPTGVPKVKLLCGADLLESFSVPNLWKMEDITQIVANFGLICITRAGSDAQKFIYESDVLWRHQSNIHLVNEWITNDISSTKIRRALRRGQSIRYLVPDLVQEYIEKHELYNTESEGRNAGVTLAPLQRNAAEAKHNHSTL", "modifications": "His tag", "notes": "Bacterially produced, His-tagged recombinant mouse nicotinamide/nicotinic acid mononucleotide adenylyltransferase"}, "B5": {"name": "extracellular Nampt-FLAG®: C-terminally FLAG-tagged mouse Nampt (SEQ ID NO:7) secreted from differentiated HIB-1B cells, immunoprecipitated from culture supernatants (protein)", "chain": "MNAAAEAEFNILLATDSYKVTHYKQYPPNTSKVYSYFECREKKTENSKVRKVKYEETVFYGLQYILNKYLKGKVVTKEKIQEAKEVYREHFQDDVFNERGWNYILEKYDGHLPIEVKAVPEGSVIPRGNVLFTVENTDPECYWLTNWIETILVQSWYPITVATNSREQKKILAKYLLETSGNLDGLEYKLHDFGYRGVSSQETAGIGASAHLVNFKGTDTVAGIALIKKYYGTKDPVPGYSVPAAEHSTITAWGKDHEKDAFEHIVTQFSSVPVSVVSDSYDIYNACEKIWGEDLRHLIVSRSTEAPLIIRPDSGNPLDTVLKVLDILGKKFPVTENSKGYKLLPPYLRVIQGDGVDINTLQEIVEGMKQKKWSIENVSFGSGGALLQKLTRDLLNCSFKCSYVVTNGLGVNVFKDPVADPNKRSKKGRLSLHRTPAGNFVTLEEGKGDLEEYGHDLLHTVFKNGKVTKSYSFDEVRKNAQLNIEQDVAPHGGDYKDDDDK", "modifications": "C-terminal FLAG tag; Nampt-FLAG (tm) protein"}}, "key": {"mouse Nampt": {"molecular_target": "mouse Nampt (Mus musculus, UniProt Q99KQ4)", "assay": "Enzyme-coupled fluorometric assay of immunoprecipitated Nampt-FLAG and recombinant Nampt", "format": "biochemical", "design": "expressed in transfected cells; host or cells: mouse NIH3T3 fibroblasts and mouse HIB-1B preadipocytes (differentiated), stably transfected with pCXN2-Nampt-FLAG; cell extracts or culture supernatant, anti-FLAG immunoprecipitates", "conditions": "for kcat: NMN synthesis, 55 min at 37° C., pH8.5, Nampt amount quantified by Western blotting", "description": "For immunoprecipitation of intracellular Nampt, whole cell extracts were prepared with ice-cold immunoprecipitation (IP) buffer (phosphate buffer saline [pH 7.4], 0.5% NP-40, 1 mM EDTA,1 mM NaF, 10 μM Trichostatin A, 10 mM nicotinamide, 0.5 mM DTT, protease inhibitor cocktail (Roche)) and mixed with agarose beads conjugated with the mouse monoclonal M2 anti-FLAG antibody (F2426, Sigma) for 3-4 hours at 4° C. For immunoprecipitation of extracellular Nampt, HIB-1B culture supernatants were collected after incubating differentiated HIB-1B cells overnight with DMEM without fetal bovine serum but supplemented with 1 μg/ml insulin and 1 nM triodothyronine, filtered through a 0.22-μm PES membrane, concentrated with Amicon Ultra-15 columns (Millipore, MA), and mixed with anti-FLAG beads for 3-4 hours at 4° C. Immunoprecipitates were washed twice with the IP buffer and twice with PBS.\nImmunoprecipitates on anti-FLAG beads were incubated in enzymatic reaction buffer (50 mM Tris-HCl (pH8.5), 100 mM NaCl, 0.25 mM Nicotinamide, 10 mM MgSO4, 1.5% Ethanol, 0.5 mM PRPP, 2.0 mM ATP) for 55 min at 37° C. After this reaction, mouse recombinant nicotinamide mononucleotide adenylyltransferase and yeast alcohol dehydrogenase (Sigma) were added at 10 μg/ml as the final concentration for each, and the mixture was incubated for 5 min at 37° C. Supernatants were then collected by spinning down anti-FLAG beads, and autofluorescence of NADH was measured in a Perkin Elmer LS 50B fluorometer (excitation: 340 nm; emission: 460 nm). Immunoprecipitates bound on anti-FLAG beads were extracted with Laemmli's sample buffer, boiled for 5 minutes, and analyzed by Western blotting with anti-Nampt antibodies. The amounts of Nampt used for enzymatic reactions were quantitated compared to the standards of mouse recombinant Nampt.\nThe immunoprecipitates from the HIB-1B culture supernatants were subjected to enzyme-coupled fluorometric assays (see Revollo et al., J. Biol. Chem., (2004)279, 50754-50763) to compare enzymatic activity of the intracellular and extracellular forms of Nampt. […] The Nampt enzymatic activity of the bacterially produced recombinant Nampt and the intracellular Nampt-FLAG® immunoprecipitated from HIB-1B and NIH3T3 cellular extracts were also measured and their kcat values calculated (see FIG. 16E). […] It is believed that a post-translational modification may be responsible for the altered enzymatic activity of extracellular Nampt produced by brown adipocytes. […] Despite the extensive mass spectrometric analysis of extracellular Nampt, the precise nature of the modification is currently unknown. Taken together, these findings provide strong evidence that Nampt functions as an NAD biosynthetic enzyme both intra- and extracellularly."}, "mouse Nmnat": {"molecular_target": "T1, mouse Nmnat (Mus musculus, UniProt Q9EPA7)", "T1 construct": "Polyclonal rabbit antisera were produced against the purified full-length His-tagged Nampt and Nmnat recombinant proteins; made in house; host or cells: E. coli BL21(DE3)pLysS", "assay": "Enzyme-coupled fluorometric assay, kinetic characterization of recombinant Nmnat", "format": "biochemical", "description": "Enzymatic activities of recombinant Nampt and Nmnat proteins were measured by an enzyme-coupled fluorometric assay (see, e.g., FIG. 4B). In this enzyme-coupled reaction, NAD is converted to NADH by alcohol dehydrogenase, and the fluorescence of NADH is detected in a fluorometer. To establish this assay system, optimal reaction conditions for Nmnat were initially examined by varying ATP and Mg^2+ concentrations and pH of the reaction buffer. The resultant reaction buffer for Nmnat contained 50 mM HEPES [pH 7.4], 0.02% BSA, 12 mM MgCl2, 2 mM ATP, 1.5% ethanol, and 30 μg/ml alcohol dehydrogenase to convert NAD to NADH. To determine the kinetic parameters for Nmnat, 30 ng of purified His-tagged Nmnat and varying concentrations of NMN were added to 1 ml of the reaction buffer. The reactions were run at 37° C. and quenched at six time points by the addition of 250 μl of 0.5 M EDTA. The production of NADH was measured by excitation at 340 nm and emission at 460 nm in a fluorometer. For kinetic characterization of Nampt, 500 ng of His-tagged Nampt and varying concentrations of nicotinamide were reacted at 37° C. in 100 μl of a buffer containing 50 mM Tris-HCl [pH 7.5], 0.02% BSA, 12 mM MgCl2, 2.5 mM ATP, 10 μg/ml His-tagged Nmnat, 0.4 mM phosphoribosyl pyrophosphate (PRPP), 1.5% ethanol, and 30 μg/ml alcohol dehydrogenase. NADH production was measured continuously in a fluorometer.\nBy using this enzyme-coupled fluorometric assay, kinetic parameters of purified recombinant mouse Nampt and Nmnat for nicotinamide and NMN, respectively, were determined (see, e.g., Table 1). The Lineweaver-Burk plots for these two enzymes are shown, for example, in FIGS. 11A and 11B. […] The Km and Vmax of mouse Nmnat are consistent with previously reported values for human NMNAT-1 (Emanuelli et al., J. Biol. Chem. (2001) 276, 406-412)."}, "[1]": {"conditions": "purified His-tagged recombinant mouse Nmnat, substrate NMN"}}, "note": "“Also recorded” adds a separate entry of the source."}
{"molecule": "B1", "values": [{"measurement": "kcat", "setting": "mouse Nampt", "result": 0.082, "unit": "s⁻¹"}]}
{"molecule": "B2", "values": [{"measurement": "enzymatic activity after treatment with calf intestinal phosphatase (CIP)", "setting": "mouse Nampt; extracellular Nampt from HIB-1B culture supernatants", "result": "did not change"}]}
{"molecule": "B3", "values": [{"measurement": "kcat", "setting": "mouse Nampt", "result": 0.182, "unit": "s⁻¹"}]}
{"molecule": "B4", "values": [{"measurement": "synthesis of NAD from NMN and ATP", "setting": "mouse Nmnat; isolated reactions", "result": "catalyzed the synthesis of NAD"}, {"measurement": "Vmax", "setting": "mouse Nmnat; [1]", "result": 31.4, "unit": "µmol/min/mg"}, {"measurement": "kcat", "setting": "mouse Nmnat; [1]", "result": 20.0, "unit": "s⁻¹"}, {"measurement": "Km", "setting": "mouse Nmnat; purified His-tagged recombinant mouse Nmnat, substrate NMN, 37° C.", "result": 20.1, "unit": "µM"}]}
{"molecule": "B5", "values": [{"measurement": "kcat", "setting": "mouse Nampt", "result": 0.380, "unit": "s⁻¹"}, {"measurement": "Nampt enzymatic activity", "setting": "mouse Nampt; immunoprecipitated from culture supernatants of differentiated HIB-1B cells", "result": "Robust activity; also recorded: has Nampt enzymatic activity"}, {"measurement": "kcat of extracellular Nampt-FLAG, fold higher than recombinant Nampt", "setting": "mouse Nampt; versus bacterially produced recombinant Nampt", "result": "~11", "unit": "fold"}, {"measurement": "kcat of extracellular Nampt-FLAG, fold higher than intracellular Nampt-FLAG from NIH3T3 cells", "setting": "mouse Nampt; versus intracellular Nampt-FLAG from NIH3T3 cells", "result": "~5", "unit": "fold"}, {"measurement": "kcat of extracellular Nampt-FLAG, fold higher than intracellular Nampt-FLAG from differentiated HIB-1B cells", "setting": "mouse Nampt; versus intracellular Nampt-FLAG from differentiated HIB-1B cells", "result": "~2", "unit": "fold"}]}
